Target: the molecule itself
Test: crystal structure; hPLD3 luminal domain with the hexa-His tag left on; crystals grown at 20 °C in 0.17 M ammonium sulfate, 15% glycerol, 25% PEG 4000; 2.3 Å; two molecules in the asymmetric unit

B1: human phospholipase D3 (hPLD3) luminal domain, residues N71-L490 (domain or fragment, UniProt Q8IV08 71-490, looked up)
chain: NQRPAPCYDPCEAVLVESIPEGLDFPNASTGNPSTSQAWLGLLAGAHSSLDIASFYWTLTNNDTHTQEPSAQQGEEVLRQLQTLAPKGVNVRIAVSKPSGPQPQADLQALLQSGAQVRMVDMQKLTHGVLHTKFWVVDQTHFYLGSANMDWRSLTQVKELGVVMYNCSCLARDLTKIFEAYWFLGQAGSSIPSTWPRFYDTRYNQETPMEICLNGTPALAYLASAPPPLCPSGRTPDLKALLNVVDNARSFIYVAVMNYLPTLEFSHPHRFWPAIDDGLRRATYERGVKVRLLISCWGHSEPSMRAFLLSLAALRDNHTHSDIQVKLFVVPADEAQARIPYARVNHNKYMVTERATYIGTSNWSGNYFTETAGTSLLVTQNGRGGLRSQLEAIFLRDWDSPYSHDLDTSADSVGNACRLL
modifications: N-linked GlcNAc at N236 and N284 (seen in the electron density)
notes: also called soluble form of the enzyme; source: Expi293 GnTI- cells, transfected, secreted; purified from culture supernatant (HisTrap excel, Superdex 200 SEC); not shown: His6, N-terminal, kept
  stoichiometry N: 2

Reference: PMC11653685, “Crystal structure of Alzheimer's disease phospholipase D3 provides a molecular basis for understanding its normal and pathological functions” (The Febs Journal, 2024)
